As a reminder, the stoichiometry N is the number of molecules, sites or subunits per partner or assembly.

In the assay the target is PANA_2924 C-terminal domain after TEV cleavage of the His-TEV tag (Pantoea ananatis LMG 20103) (UniProt D4GKQ2). Nature of the assay: SEC. A general note: In gel filtration, larger molecules generally elute earlier.

In the case of “PANA_2923 immunity protein (natural protein)”, the stoichiometry N turned out to be 1.

Source of the values: paper doi:10.1101/2025.07.23.666440.
